Test results published in publication PMC10620413, “Dimeric Transmembrane Structure of the SARS-CoV-2 E Protein” (Communications Biology, 2023).

B1: SARS-CoV-2 E protein fragment E_(8–41) (domain or fragment)
chain: SNAETGTLIVNSVLLFLAFVVFLLVTLAILTALRLSA
notes: not shown: MBP, N-terminal, cleaved

Columns and labels:
[1] = biological target: SARS-CoV-2 E protein transmembrane domain E_(12–37) (SARS-CoV-2 (isolate Wuhan-Hu-1)); assay: SDS-PAGE
SDS-PAGE = biological target: the molecule itself; assay: SDS-PAGE

Molecule | stoichiometry N [1] | stoichiometry N (SDS-PAGE)
SARS-CoV-2 E protein transmembrane domain E_(12–37) (domain or fragment) | 2 | –
B1 | – | 2
